No end group written: not given here. *: point of attachment. Biotin = O=C1N[C@H]2[C@H](CS[C@H]2CCCCC(=O)*)N1
Columns and labels:
[1] = biological target: alpha-synuclein phosphorylated at serine 129 (human, UniProt P37840 1-140); test: SPR (Biacore), antibody captured, p129-Syn injected
Procedure: Anti-mouse Fc antibody (obtained from GE Healthcare) was immobilized on the surface of a CM5 chip (obtained from GE Healthcare) through amine-coupling to reach about 6,000 to 8,000 response units (RU). The surface was activated by injection of a mixture of 1-ethyl-3-(3-dimethylaminopropyl)-carbodiimide (EDC) and N-hydroxysuccinimide (NETS), both obtained from GE Healthcare, for 7 minutes at room temperature. […] Both injections were done at room temperature.
Purified rat anti alpha-synuclein antibody (10 μg/mL) was injected at room temperature and captured to reach 1,000 to 2,000 RU. […] Sensorgrams were fitted using a 1:1 Langmuir model to estimate kₒₙ and koff.

[2] = biological target: T1, asyn_113-127_118A (human); test: Ala-scan peptide ELISA, row C, run 2
T1 construct: substitution is already in the entry; also called pep7
T1 peptide: Biotin-LEDMPADPDNEAYEM
Procedure: (§1) 96-well Nunc plates were coated with 50 μL per well of 1 μg/mL streptavidin (from Jackson Immuno Research Laboratory) in PBS at 4° C. overnight. The plates were washed three times with PBST, and blocked with PBS containing 3% BSA at room temperature for 1 hour. The N-terminal biotinylated peptides were dissolved in Milli Q water to a concentration of 2 mg/mL, then further diluted to a concentration of 2 μg/mL with PBS. 50 μl of the diluted peptide was applied to the streptavidin-coated plates and incubated at 4° C. overnight. 2 μg/mL of biotinylated human alpha-synuclein was used as the positive control. The plates were washed three times with PBST before use. Purified antibody was diluted by serial dilution methods, from 20 μg/mL to 1 ng/mL, and 50 μL of the antibody solution was added to the peptide-coated wells. The plates were incubated for 1 hour at room temperature, then washed three times with PBST. Secondary detection antibody (goat anti-rat HRP (obtained from Southern Biotech)) was added with 1:5,000 dilutions and incubated for 1 hour at room temperature, then washed three times with PBST. Plates were developed with 50 μL/well of TMB substrate (Thermo Fisher) and quenched with 50 μL/well of 1 N sulfuric acid. The signal was quantified on a BioTek® plate reader at A450. A parallel repeat was performed for each peptide in a separate plate.

[3] = biological target: T2, asyn_113-127_127A (human); test: Ala-scan peptide ELISA, row C, run 2
T2 construct: substitution is already in the entry; also called pep17
T2 peptide: Biotin-LEDMPVDPDNEAYEA
Procedure: as §1

[4] = biological target: T3, biotinylated human alpha-synuclein (human, UniProt P37840 1-140); test: Ala-scan peptide ELISA, row C, run 2
Procedure: as §1

[5] = biological target: T4, asyn_113-127_115A (human); test: Ala-scan peptide ELISA, row C, run 2
T4 construct: substitution is already in the entry; also called pep4
T4 peptide: Biotin-LEAMPVDPDNEAYEM
Procedure: as §1

[6] = biological target: T5, asyn_113-127_113A (human); test: Ala-scan peptide ELISA, row C, run 2
T5 construct: substitution is already in the entry; also called pep2
T5 peptide: Biotin-AEDMPVDPDNEAYEM
Procedure: as §1

[7] = biological target: T6, asyn_113-127_116A (human); test: Ala-scan peptide ELISA, row C, run 2
T6 construct: substitution is already in the entry; also called pep5
T6 peptide: Biotin-LEDAPVDPDNEAYEM
Procedure: as §1

[8] = biological target: T7, asyn_113-127_123A (human); test: Ala-scan peptide ELISA, row C, run 2
T7 construct: substitution is already in the entry; also called pep12
T7 peptide: Biotin-LEDMPVDPDNAAYEM
Procedure: as §1

[9] = biological target: T8, asyn_113-127 (human); test: Ala-scan peptide ELISA, row C, run 2
T8 construct: also called pep1
T8 peptide: Biotin-LEDMPVDPDNEAYEM
Procedure: as §1

[10] = biological target: T9, asyn_113-127_120A (human); test: Ala-scan peptide ELISA, row C, run 2
T9 construct: substitution is already in the entry; also called pep9
T9 peptide: Biotin-LEDMPVDADNEAYEM
Procedure: as §1

[11] = biological target: T10, asyn_113-127_125A (human); test: Ala-scan peptide ELISA, row C, run 2
T10 construct: substitution is already in the entry; also called pep15
T10 peptide: Biotin-LEDMPVDPDNEAAEM
Procedure: as §1

[12] = biological target: T11, asyn_113-127_124P (human); test: Ala-scan peptide ELISA, row C, run 2
T11 construct: substitution is already in the entry; also called pep14
T11 peptide: Biotin-LEDMPVDPDNEPYEM
Procedure: as §1

[13] = biological target: T12, asyn_113-127_126A (human); test: Ala-scan peptide ELISA, row C, run 2
T12 construct: substitution is already in the entry; also called pep16
T12 peptide: Biotin-LEDMPVDPDNEAYAM
Procedure: as §1

[14] = biological target: T13, asyn_113-127_117A (human); test: Ala-scan peptide ELISA, row C, run 2
T13 construct: substitution is already in the entry; also called pep6
T13 peptide: Biotin-LEDMAVDPDNEAYEM
Procedure: as §1

[15] = biological target: T14, asyn_113-127_121A (human); test: Ala-scan peptide ELISA, row C, run 2
T14 construct: substitution is already in the entry; also called pep10
T14 peptide: Biotin-LEDMPVDPANEAYEM
Procedure: as §1

[16] = biological target: T15, asyn_113-127_114A (human); test: Ala-scan peptide ELISA, row C, run 2
T15 construct: substitution is already in the entry; also called pep3
T15 peptide: Biotin-LADMPVDPDNEAYEM
Procedure: as §1

[17] = biological target: T16, asyn_113-127_124G (human); test: Ala-scan peptide ELISA, row C, run 2
T16 construct: substitution is already in the entry; also called pep13
T16 peptide: Biotin-LEDMPVDPDNEGYEM
Procedure: as §1

[18] = biological target: T17, asyn_113-127_122A (human); test: Ala-scan peptide ELISA, row C, run 2
T17 construct: substitution is already in the entry; also called pep11
T17 peptide: Biotin-LEDMPVDPDAEAYEM
Procedure: as §1

[19] = biological target: T18, asyn_113-127_119A (human); test: Ala-scan peptide ELISA, row C, run 2
T18 construct: substitution is already in the entry; also called pep8
T18 peptide: Biotin-LEDMPVAPDNEAYEM
Procedure: as §1

[20] = biological target: human alpha-synuclein oligomers (human, UniProt P37840 1-140); test: competition ELISA: oligomers titrated in solution against 0.6 nM antibody, free antibody read on aSyn-coated plate
Procedure: To measure the binding affinities of select antibodies toward oligomeric alpha-synuclein protein, purified antibodies were probed with different concentrations of human alpha-synuclein oligomers in solution, and the levels of unbound antibody were measured by ELISA analysis. In this experiment, 0.6 nM (0.1 pg/mL) of purified antibody was dissolved in phosphate-buffered saline (PBS) solution. […] The mixtures were gently shaken at room temperature for 1 hour to reach equilibrium. After that, these samples were transferred to an alpha-synuclein protein-coated ELISA plate, and antibody not bound to antigen in the previous solution was detected by direct ELISA.

[21] = biological target: T1, asyn_113-127_118A; test: Ala-scan peptide ELISA, row B, run 1
Procedure: as §1

[22] = biological target: T2, asyn_113-127_127A; test: Ala-scan peptide ELISA, row B, run 1
Procedure: as §1

[23] = biological target: T3, biotinylated human alpha-synuclein; test: Ala-scan peptide ELISA, row B, run 1
Procedure: as §1

[24] = biological target: T4, asyn_113-127_115A; test: Ala-scan peptide ELISA, row B, run 1
Procedure: as §1

[25] = biological target: T5, asyn_113-127_113A; test: Ala-scan peptide ELISA, row B, run 1
Procedure: as §1

[26] = biological target: T7, asyn_113-127_123A; test: Ala-scan peptide ELISA, row B, run 1
Procedure: as §1

[27] = biological target: T8, asyn_113-127; test: Ala-scan peptide ELISA, row B, run 1
Procedure: as §1

[28] = biological target: T9, asyn_113-127_120A; test: Ala-scan peptide ELISA, row B, run 1
Procedure: as §1

[29] = biological target: T10, asyn_113-127_125A; test: Ala-scan peptide ELISA, row B, run 1
Procedure: as §1

[30] = biological target: T12, asyn_113-127_126A; test: Ala-scan peptide ELISA, row B, run 1
Procedure: as §1

[31] = biological target: T13, asyn_113-127_117A; test: Ala-scan peptide ELISA, row B, run 1
Procedure: as §1

[32] = biological target: T14, asyn_113-127_121A; test: Ala-scan peptide ELISA, row B, run 1
Procedure: as §1

[33] = biological target: T15, asyn_113-127_114A; test: Ala-scan peptide ELISA, row B, run 1
Procedure: as §1

[34] = biological target: T16, asyn_113-127_124G; test: Ala-scan peptide ELISA, row B, run 1
Procedure: as §1

[35] = biological target: T17, asyn_113-127_122A; test: Ala-scan peptide ELISA, row B, run 1
Procedure: as §1

B1: 20H4 (antibody, rat IgG2b, V domains shown)
VH: AVQLVESGGGLVQPKESLKISCAASGFTFSNAAMYWVRQAPGKGLELLARIRTKPNNYATYHADSVKGRFTISRDDSQSMVYLHMGNLKTEDTAMYYCTADMATGDYWGPGVMVTVSS
VL: DIQMTQSPPVLSVSVGDRVTLSCKASQNINKNLDWYQQKHGEAPKPLIYSTNNLQTGVPSRFSGSGSGTDYTLTISSLQPEDVATYYCYQYKSAWTFGGGTKLELR
notes: also called clone 20H4; rat 20H4
Question: Which results are given for B1?
Answer: Kd [1]: 6.14 nM; A450 [2]: 0.44 OD; A450 [3]: 0.443 OD; A450 [4]: 0.976 OD; A450 [5]: 0.306 OD; A450 [6]: 0.377 OD; A450 [7]: 0.393 OD; A450 [8]: 0.377 OD; A450 [9]: 0.307 OD; A450 [10]: 0.223 OD; A450 [11]: 0.052 OD; A450 [12]: 0.055 OD; A450 [13]: 0.369 OD; A450 [14]: 0.441 OD; A450 [15]: 0.281 OD; A450 [16]: 0.367 OD; A450 [17]: 0.295 OD; A450 [18]: 0.051 OD; A450 [19]: 0.046 OD; IC50 [20]: 5.38 nM; A450 [21]: 0.509 OD; A450 [22]: 0.333 OD; A450 [23]: 0.711 OD; A450 [24]: 0.486 OD; A450 [25]: 0.462 OD; A450 [26]: 0.546 OD; A450 [27]: 0.501 OD; A450 [28]: 0.393 OD; A450 [29]: 0.049 OD; A450 [30]: 0.35 OD; A450 [31]: 0.527 OD; A450 [32]: 0.49 OD; A450 [33]: 0.471 OD; A450 [34]: 0.366 OD; A450 [35]: 0.058 OD
